# Data as given in patent US20200062861A1.
# Biological target: Herceptin-GlcNAc
# Experiment: cell-based or functional assay
substance,measurement,value
EndoSz-D234M (enzyme),"time dependent transglycosylation (HPLC, percent of Herceptin-GlcNAc remaining)",0%
